Consider four molecules from patent US20230357411A1.

Where a chain is given by its changes, count along the chain named.

B1: humanized anti-TrkA monoclonal antibody H1L1-IgG4 (antibody)
heavy: EVQLLESGGGLVQPGGSLKLSCKASGYAFTNYWLGWMKQRPGHGLEWIGDFYPRTGNTFYNENFKGKVTLTADKSSNTAYMQLSSLTSEDSAVYLCARAGTGFDYWGQGTTLTVSSASTKGPSVFPLAPCSRSTSESTAALGCLVKDYFPEPVTVSWNSGALTSGVHTFPAVLQSSGLYSLSSVVTVPSSSLGTKTYTCNVDHKPSNTKVDKRVESKYGPPCPPCPAPEAAGGPSVFLFPPKPKDTLMISRTPEVTCVVVDVSQEDPEVQFNWYVDGVEVHNAKTKPREEQFNSTYRVVSVLTVLHQDWLNGKEYKCKVSNKGLPSSIEKTISKAKGQPREPQVYTLPPSQEEMTKNQVSLTCLVKGFYPSDIAVEWESNGQPENNYKTTPPVLDSDGSFFLYSKLTVDKSRWQEGNVFSCSVMHEALHNHYTQKSLSLSLG
light: EIVMTQSPATLSLSVGERVTLSCKASENVGGYVSWYQQKPDQSPKLLIYGASSRHTGVPDRFTGSGSETDFTLTISSVQAEDLAAYHCGQNYIYPFTFGGGTKLEIKRTVAAPSVFIFPPSDEQLKSGTASVVCLLNNFYPREAKVQWKVDNALQSGNSQESVTEQDSKDSTYSLSSTLTLSKADYEKHKVYACEVTHQGLSSPVTKSFNRGEC
B2: human-mouse chimeric anti-TrkA monoclonal antibody 23E12 (H0L0-IgG4) (antibody)
heavy: B1 heavy with E1Q, L5Q, E6Q, G9A, G10E, Q13R, G16T, L18V, L20I
light: B1 light with E1S, A9K, T10S, L11M, L13M
B3: humanized anti-TrkA monoclonal antibody H3L1-IgG4 (antibody, V domains shown)
VH: EVQLLESGGGLVQPGGSLKLSCKASGYAFTNYWLGWMKQRPGHGLEWIGDFYPRTGNTFYNENFKGQVTMSVDKSITTAYLQWNSLKASDTAMYYCARAGTGFDYWGQGTTLTVSS
VL: EIVMTQSPATLSLSVGERVTLSCKASENVGGYVSWYQQKPDQSPKLLIYGASSRHTGVPDRFTGSGSETDFTLTISSVQAEDLAAYHCGQNYIYPFTFGGGTKLEIKR
B4: humanized anti-TrkA monoclonal antibody H3L2-IgG4 (antibody, V domains shown)
VH: B3 VH
VL: B3 VL with H55A

This test deals with TrKA (ELISA antigen, target Human-TrKA) (human) (UniProt P04629). Kind of test: ELISA, antibody 0 to 20 µg/mL, plateau.
TrKA (ELISA antigen, target Human-TrKA) (human), sequence (P04629 33-423 limits assumed): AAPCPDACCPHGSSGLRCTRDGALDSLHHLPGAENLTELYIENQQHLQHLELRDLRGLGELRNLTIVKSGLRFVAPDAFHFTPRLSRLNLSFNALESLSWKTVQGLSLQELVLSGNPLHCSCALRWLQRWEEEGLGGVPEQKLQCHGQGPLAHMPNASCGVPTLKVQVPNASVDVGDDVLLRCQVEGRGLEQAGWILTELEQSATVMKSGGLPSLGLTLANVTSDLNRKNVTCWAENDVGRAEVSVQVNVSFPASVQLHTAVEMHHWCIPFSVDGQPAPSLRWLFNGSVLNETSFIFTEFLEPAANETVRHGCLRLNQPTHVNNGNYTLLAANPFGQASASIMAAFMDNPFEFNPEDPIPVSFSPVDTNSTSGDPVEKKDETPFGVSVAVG
B1 returned an OD450 of 3. Molecule B2 displayed an OD450 of 3. The same measure for B3: 3.

For the molecule B4, the OD450 is 3.
